In patent US20090305339A1, “Polypeptides With Laccase Activity” (VIALACTIA BIOSCIENCES (NZ) LIMITED, priority 2006, published 2009):

Legend:
Format in all cases: biochemical
[1] = pH- and temperature-dependent activity and inactivation profiles
Procedure: FIG. 2A represents the effect of various pH values on the activity of recombinant purified RL5 laccase. The activity was measured at 40° C. using 1 mM SGZ (syringaldazine) or DMP as substrate. The buffers (100 mM) used were: citrate (pH 3.0-5.5), MES (pH 5.5-7.0), HEPES (pH 7.0-8.0), Tris-HCl (pH 8.0-9.0) and glycine-NaOH (pH 9.0-12). The activity of RL5 for DMP reached an optimum at a broad pH ranging from 3.5-9.0, being optimal at 4.0-5.0; however, it maintained more than 70% activity at pH 3.5 and 9.0 (FIG. 2A).
FIG. 2B represents the pH inactivation of purified RL5 laccase in sodium citrate pH 4.5 (indicated with “∘”) or glycine-NaOH pH 9.0 (indicated with “[…]”) over a time period of 240 min. 100% activity in the purified protein sample equals 7.2 units/mg (measured at 40° C.).
FIG. 2C represents the effect of the temperature on the activity of recombinant purified RL5 laccase. The enzyme activity was assayed at each indicated temperature in sodium citrate pH 4.5 in the presence of 1 mM SGZ or DMP. Activity was monitored at 420 nm. Protein activity increased as the temperature was raised to a maximum at ˜60° C. Therefore, RL5 is stable at high temperatures.
FIG. 2D represents the thermal inactivation of purified RL5 laccase. Purified enzyme was incubated in vials at 60° C. ([…]) or 65° C. (∘). At the indicated times, samples were withdrawn and tested for laccase activity at 40° C. by using SGZ or DMP as a substrate. 100% activity in the purified protein sample equals 17.2 units/mg.
Corresponding experiments were performed with BT4389 and YfiH under conditions as described above for FIGS. 2A to 2D (data not shown). The activity of these enzymes reached an optimum at a temperature of 52° C. (for BT4389) and 44° C. (for YfiH) and the thermal activity maintained for more than 80% at 55° C. (for BT4389) and at 50° C. (for YfiH). The activity of both enzymes reached an optimum at a pH range from 4.5 to 6.0 (for BT4389) and from 5.5 to 8.4 (for YfiH), although 80% activity maintained at pH 4.0 to 7.5 (for BT4389) and 5.0 to 9.0 (for YfiH).
(§1) Laccase activity was determined spectrophotometrically in a thermostated spectrophotometer (Perkin-Elmer) at 40° C. in 100 mM sodium citrate buffer, pH 4.5 (1 ml). The standard assay was performed at 530 nm, using SGZ as the oxidation substrate (ε530=64,000 M^−1cm^−1). The reaction was started by adding SGZ, from a stock solution in methanol, to a final concentration of 20 μM. […] Oxidation of phenol red (75 μM) was determined by the decrease in absorbance at 432 nm. The activity:pH and activity:temperature relationships were determined by incubating the enzyme:substrate mixtures at different pH values and constant temperature (40° C.), and at different temperatures (15-80° C.) and constant pH (4.5), respectively. Catalytic constants were derived by fitting the experimental data onto the Michaelis-Menten model. Control measurements without enzyme were carried out to correct for possible chemical oxidation of the substrates.

[2] = Laccase activity, 3,4-dimetoxybenzyl alcohol as substrate
Procedure: as §1

[3] = Oxidative reactions of various compounds (substrate preference, overall kinetics, pH range); conditions: order of oxidized substrates
Procedure: as §1

[4] = Oxidation of anthracene (HPLC, GC-MS/MS); conditions: 50 μM anthracene, HOBt, pH 4.5, overnight, room temperature
Procedure: Procedures for cloning, expression and purification of laccase are described in the reference: Beloqui, A., et al. (2006), which is made part of the disclosure of the present application.
HPLC conditions: the HPLC (Varian 9012) was provided with an automatic injector (Autosampler L2200, VWR Hitachi). 10 μL of sample reaction were injected to a C18 Nucleosil 3 μm, 80×4 mm, column (AV-2486, Analisis Vinicos S. A.). The mobile phase consisted of acetonitrile:water 70:30 (v/v) and the flow rate was controlled at 1 mL/min. A PhotoDiode Array Detector (Prostar 335, Varian) with the UV lamp fixed to 251 nm was used to detect the eluted compounds.

B1: RL5: polypeptide with laccase activity from bovine rumen metagenome library, amino acid sequence of FIG. 11 (protein)
chain: MIELEKLDFAKSVEGVEAFSTTRGQVDGRNAYSGVNLCDYVGDDALRVLDARLTLAMQLGVDLDDLVMPRQTHSCRVAVIDERFRALDIDEQEAALEGVDALVTRLQGIVIGVNTADCVPIVLVDSQAGIVAVSHAGWRGTVGRIAKAVVEEMCRQGATVDRIQAAMGPSICQDCFEVGDEVVEAFKKAHFNLNDIVVRNPATGKAHIDLRAANRAVLVAAGVPAANIVESQHCSRCEHTSFFSARRLGINSGRTFTGIYRK
modifications: Description of sequence Amino acid sequence of RL5 laccase 3217 to 2414 frame 1 - 262 amino acids (see Figure 11)
[1]; 40° C., 1 mM substrate, 100 mM buffers
  pH optimum of activity: 4.0-5.0 pH
[1]; DMP, 40° C.
  activity maintained at pH 3.5 and 9.0: more than 70%
  broad pH range of activity: 3.5-9.0 pH
[1]; incubated at 60° C. or 65° C.
  thermal stability: highly stable at this temperatures over a long time period, for at least four hours
[1]; pH inactivation experiment, measured at 40° C.
  100% activity in the purified protein sample: 7.2 units/mg
[1]; sodium citrate pH 4.5, 1 mM SGZ or DMP
  temperature optimum of activity: ~60 °C
[1]; sodium citrate pH 4.5 or glycine-NaOH pH 9.0, 240 min
  pH stability: highly stable over a long time period at these pHs
[1]; thermal inactivation experiment, tested at 40° C., SGZ or DMP
  100% activity in the purified protein sample: 17.2 units/mg
[2]
  substrate of the laccase: not substrates
[3]
  substrate preference: SGZ>DMP>veratryl alcohol>guaiacol>tetramethylbenzidine>4-metoxybenzyl alcohol>2ABTS>phenol red
[4]
  oxidation of anthracene: efficiently oxidize anthracene to 9,10-antraquinone
